Data published in patent US9279769B2, “Proteins that efficiently generate singlet oxygen” (The Regents of the University of California, priority 2010, dated 2016).
“And” between values parts separate entries of the source, which are not always exact repeats. Equal values may be shown once.

Tested on: IFP1.4
Assay: bleaching of fused IFP1.4 in E. coli colonies by blue light
Type: cell-based
From the text: In phototropin, the excited state energy of FMN is consumed to form a covalent bond with a cysteine. To divert this energy into ^1O2 generation, we carried out saturation mutagenesis of the relevant cysteine (Cys426) of the LOV2 domain of Arabidopsis thaliana phototropin 2 (AtPhot2). To screen for optimal ^1O2 production, these site-specific mutants were fused to an infrared fluorescent protein, IFP1.4, which is readily bleached by ^1O2 [21]. Colonies of E. coli expressing the fusion proteins were imaged in the IFP channel (ex 684/em 708 nm) before and after blue light (488 nm) illumination (FIG. 1A). […] The small side chain of the glycine residue may provide space around the cofactor that would allow O2 close apposition to FMN for efficient energy transfer.
[…] was synthesized by overlap extension PCR [48]. Genetic libraries were constructed by saturation and random mutagenesis and DNA shuffling. Mutants were fused to IFP1.4 by overlap extension PCR and cloned into a modified pBAD vector containing the heme oxygenase-1 gene from cyanobacteria. Libraries were expressed in E. coli strain TOP10 and screened by imaging the agar plates with colonies in the IFP channel before and after blue light illumination. Protein purification and spectroscopic characterization experiments were done as described.

B1: C426G (protein)
chain: MERPRAPPSPLNDAESLSERRSLEIFNPSSGKETHGSTSSSSKPPLDGNNKGSSSKWMEFQDSAKITERTAEWGLSAVKPDSGDDGISFKLSSEVERSKNMSRRSSEESTSSESGAFPRVSQELKTALSTLQQTFVVSDATQPHCPIVYASSGFFTMTGYSSKEIVGRNCRFLQGPDTDKNEVAKIRDCVKNGKSYCGRLLNYKKDGTPFWNLLTVTPIKDDQGNTIKFIGMQVEVSKYTEGVNDKALRPNGLSKSLIRYDARQKEKALDSITEVVQTIRHRKSQVQESVSNDTMVKPDSSTTPTPGRQTRQSDEASKSFRTPGRVSTPTGSKLKSSNNRHEDLLRMEPEELMLSTEVIGQRDSWDLSDRERDIRQGIDLATTLERIEKNFVISDPRLPDNPIIFASDSFLELTEYSREEILGRNGRFLQGPETDQATVQKIRDAIRDQREITVQLINYTKSGKKFWNLFHLQPMRDQKGELQYFIGVQLDGSDHVEPLQNRLSERTEMQSSKLVKATATNVDEAVRELPDANTRPEDLWAAHSKPVYPLPHNKESTSWKAIKKIQASGETVGLHHFKPIKPLGSGDTGSVHLVELKGTGELYAMKAMEKTMMLNRNKAHRACIEREIISLLDHPFLPTLYASFQTSTHVCLITDFCPGGELFALLDRQPMKILTEDSARFYAAEVVIGLEYLHCLGIVYRDLKPENILLKKDGHIVLADFDLSFMTTCTPQLIIPAAPSKRRRSKSQPLPTFVAEPSTQSNSFVGTEEYIAPEIITGAGHTSAIDWWALGILLYEMLYGRTPFRGKNRQKTFANILHKDLTFPSSIPVSLVGRQLINTLLNRDPSSRLGSKGGANEIKQHAFFRGINWPLIRGMSPPPLDAPLSIIEKDPNAKDIKWEDDGVLVNSTDLDIDLF
modifications: miniSOG polypeptide
B1 was tested, and the “decrease of IFP fluorescence” value (blue light (488 nm) illumination) was −70%, the “IFP1.4 brightness before irradiation” value (two colonies, fusion to IFP1.4) was 100 and 96 and the “IFP1.4 brightness after irradiation” value (two colonies, irradiation at 480/30 nm) was 27 and 28.
